Biological target: 6-P-β-glucosidase from Lactobacillus plantarum WCFS1 (LpPgb1) (Lactobacillus plantarum WCFS1)
Test: SEC; Superdex 200 16/60, 20 mM HEPES-NaOH pH 8.0, 250 mM NaCl, 2 mM DTT, proteins ~3 mg/ml, 1 ml/min, calibrated with ferritin, aldolase, conalbumin and ovalbumin; oligomeric state from the elution volume

stoichiometry N: 2
Substance: 6-P-β-glucosidase from Lactobacillus plantarum WCFS1 (LpPgb1) (enzyme)
